This passage reports protein production results from a protein production outcome set (Wang et al. 2014).

The data set can be described thus: label from the status in PepcDB records.
“MTTDQHQEILRTEGLSKFFPGVKALDNVDFSLRRGEIMALLGENGAGKSTLIKALTGVYHADRGTIWLEGQAISPKNTAHAQQLGIGTVYQEVNLLPNMSVADNLFIGREPKRFGLLRRKEMEKRATELMASYGFSLDVREPLNRFSVAMQQIVAICRAIDLSAKVLILDEPTASLDTQEVELLFDLMRQLRDRGVSLIFVTHFLDQVYQVSDRITVLRNGSFVGCRETCELPQIELVKMMLGRELDTHALQRAGRTLLSDKPVAAFKNYGKKGTIAPFDLEVRPGEIVGLAGLLGSGRTETAEVIFGIKPADSGTALIKGKPQNLRSPHQASVLGIGFCPEDRKTDGIIAAASVRENIILALQAQRGWLRPISRKEQQEIAERFIRQLGIRTPSTEQPIEFLSGGNQQKVLLSRWLLTRPQFLILDEPTRGIDVGAHAEIIRLIETLCADGLALLVISSELEELVGYADRVIIMRDRKQVAEIPLAELSVPAIMNAIAA”: the protein production entry is recorded as “failed”.
The result for “PEQLRSTVRIGTIDSIVQAWLPRFIERVRELYPGLTLDLNVDTSRGIAREIVERKIDLALLMGPVLEAGLRNVDLGSMDCAWVAAPGFGLGGRRIGLADLVDLPILTFSRNSDPHVWLMRQFEELRLPQPAISNSNSLSAML” reads “failed”.
Turning to “MSQVSIIIPTLNEAASLGRTLRQLTLLNPPAKEVIVVDGGSEDETIAIAKQNFESFRQATGVQVIFCERRGRSVQMNYGALSATGDILCFLHADTWVPDDLVAVIEKTLAETKVSCGGFISLMTGSQTTRWGISLHNYLKTYYAPLLFKPHLFFQGLRLLFGDQVMFCRRNDFWDCGGFNEELPIMEDGDLCLKLVQKGRIALVNRIVQSSDRRVARWGSWKATAIYLYIGVLWGIGVDANYLKQFYQDIRLEHHHHHH”, the protein production result is “not failed”.
In the case of “VTSDPGTAAPVKRTAEQSRSLIVDAAGRAFATRPYREITLKDIAEDAGVSAPLIIKYFGSKEQLFDALVDFRAAAEIVFSGPLDGLGERMVSMFARPLEPYKPLSLNILFMSGPSEESSRKLRANYSAQMIDALAERLPGRDARLRAELVMSMLTGLAVMRRKMMQEHATGTPEEVVAHYAPLVQELLDG”, the protein production entry is “not failed”.
Regarding “MIKVAESRTSWVASVFGLAALYVLGTVTPLEDIDSHLGGVNVTNLLQAIFALLAIFFFNDSVRRLANVPVVRWTYYAPLLSIPVMIASFSLIADKAPTAADFIDTRMDQLATAVYSGTYMFALLFTVLRIIYMLRHNAKGPYATFSAGLMVVAVAVSCHIAYVVLYYFSPWDDFARAIGTWFDRLFYIGLTVTAAGWLILFLSKQLPRLRLWMIDALWLTAMRMRVNADRSRVSPAWDLFNETLENGVYKSLIVLHNYERVNLMEFPESVQGRISHIEAKLDAQT”, the protein production entry was “failed”.
The same measure for “MSVNESVNRIVGGSGVILAGTFLGMLLDILIKKVMTSHLSPADFGTYSLALTVISITGAVATLGLNEGVPRYIAFFRGRQEEQKVHELIISAILMGLIAGLLAILVSPSLFESLAGKGFDAQGQILSVVKILVFAIPFTILLNLTVAIYRGFDRTNVNMYFYNIIRPLSLLGFASAAVYFGASLKGVVFADLISMVFTFSIMSVYFVKKPPVKPEWKIKFSEPTRQLIRYSFPLLITATLLNLMSWIDTIMLGYFRPAEVVGVYNAVYPIVGFLSLVIASMGYVYVPVASKLWGLNKTQPVGSIYAVMTKWCFLLTFPIFALIFVYPEFLITKLYGAEYVGGTTALRILAMGFIANSYFGFNYHTLLASGDSDFLMRCSVASAGINAVVNFMLIPEYGMIGAAIGTAVSYASIEVSMTLRAWRKQKMHPFTSMYRKLTLVCVVMTATMLAAKIIIPLSGAAWEYAVFIIVYFAVIHYAKILDKDEISMVDEIRKNIRQNVSVHVPQAIKTLVP”: “failed”; for “MKHCLKFALLAGFALLLTACGFHLRGLGGSLKPLPFSTMYLEATGKSIEADLRTVFARDPKLSVMSEPKGAQAVVSVVSENQSKDILTINTGGRINEYQLTYTVVVRTVIGGVPVDPDMVVTVRRSLNYSDNQVLGKQQEEDLLWADARRDAAEQIVRRLAYLKVPAAPLAGPVSVKPDAVPQPLEHHHHHH”: “not failed”.
Turning to “MSAWTMSDPYPATEAHAQRAAKSSPKSLLDRLLSLVRREPEDREGIKAILEAAHERELLDAESYAMIKGALAVSERTVADIMVPRSRMDLLDISQPLPQLLATIIETAHSRFPVYEDDRDNIIGILLAKDLLRYMLEPALDIRSLVRPAVFIPEVKRLNVLLREFRASRNHLAIVIDEHGGISGLVTMEDVLEQIVGDIEDEFDEDEEESIFPEGENQWRLTASTDISHFNATFATDLPDDEYDSVGGWLGGQLGRIPRRGDSADHDGLHIEVVRADARRALWLRVRRNAGAQPPASAAE”, the protein production entry is “not failed”.
